How the values were obtained:
[1] = target: T1, Peptide N (chymotryptic peptide, Cys knot, dimer) (human); assay: BIAcore competition: 12A5-5 pre-incubated with the HPLC peptide fraction in solution, then passed over immobilized human myostatin
T1 chain 1: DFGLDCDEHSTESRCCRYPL
T1 chain 2: KANYCSGECEFVF
T1 chain 3: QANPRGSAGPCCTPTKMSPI
T1 chain 4: GKIPAMVVDRCGCS
Experimental: (§1) The strategy for characterizing the epitopes bound by anti-myostatin neutralizing monoclonal antibodies was to use various CNBr—, LysC— and chymotrypsin-generated human myostatin peptides and determine which peptides could be bound by the antibody. In one aspect, this was tested in a BIAcore® competition binding assay where the binding of 12A5-5 to human myostatin immobilized on a BIAcore® chip was determined in the presence or absence of each of the various isolated HPLC peptide fractions. In the absence of any competing peptides, 12A5-5 was able to bind the human myostatin on the chip and produce an RU (resonance unit) response. […] This general procedure was repeated individually for each peptide. […] These binding patterns, coupled with the known identity of the various myostatin peptides were used to determine which regions of myostatin were important (or necessary) for the binding of antibody 12A5-5.

[2] = target: T2, Peptide I (reduced LysC peptide, 55-78) (human); assay: as above
T2 construct: From TCEP reduction of peptide G
T2 peptide: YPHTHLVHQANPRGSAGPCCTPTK
Experimental: as §1

[3] = target: T3, Peptide H (reduced LysC peptide, 91-97) (human); assay: as above
T3 peptide: EQIIYGK
Experimental: as §1

[4] = target: T4, Peptide F (LysC peptide, 79-90) (human); assay: as above
T4 peptide: MSPINMLYFNGK
Experimental: as §1

[5] = target: T5, Peptide J (reduced LysC peptide, 98-109) (human); assay: as above
T5 construct: From TCEP reduction of peptide G
T5 peptide: IPAMVVDRCGCS
Experimental: as §1

[6] = target: T6, Peptide M (reduced LysC peptide, 1-36) (human); assay: as above
T6 construct: From TCEP reduction of peptide G
T6 peptide: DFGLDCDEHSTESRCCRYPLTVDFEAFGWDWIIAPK
Experimental: as §1

[7] = target: T7, Peptide K (reduced LysC peptide, 40-54) (human); assay: as above
T7 construct: From TCEP reduction of peptide G
T7 peptide: ANYCSGECEFVFLQK
Experimental: as §1

[8] = target: T8, Peptide B (CNBr peptide, 85-101) (human); assay: as above
T8 construct: both are this molecule; also called Peptide D; Reduced CNBr peptide
T8 peptide: LYFNGKEQIIYGKIPAM
Experimental: as §1

GDF11 = target: T9, GDF11 (UniProt O95390 299-407); assay: separate experiment, method not named (Biacore section)
T9 construct: also called growth and differentiation factor 11; BMP-11
T9 sequence (O95390 299-407 limits assumed): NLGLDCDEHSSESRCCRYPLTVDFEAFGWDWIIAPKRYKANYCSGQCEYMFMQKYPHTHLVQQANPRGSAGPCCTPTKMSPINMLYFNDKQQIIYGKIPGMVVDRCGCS

Activin AC = target: T10, Activin AC (UniProt P08476 311-426; P55103 237-352); assay: Biacore SPR, ligand flowed over immobilized antibody
T10 construct: the two chains follow from the usual meaning of Activin AC
T10 sequence (looked up) 1: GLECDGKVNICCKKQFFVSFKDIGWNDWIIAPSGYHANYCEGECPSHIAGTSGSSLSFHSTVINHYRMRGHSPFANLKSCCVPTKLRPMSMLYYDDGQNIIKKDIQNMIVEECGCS
T10 sequence (looked up) 2: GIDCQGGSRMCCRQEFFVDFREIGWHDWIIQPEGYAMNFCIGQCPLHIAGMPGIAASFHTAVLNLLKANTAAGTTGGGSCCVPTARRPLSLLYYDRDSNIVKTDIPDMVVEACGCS
Experimental: (§2) Binding specificity analysis was carried out for 12A5-5 using Biacore™, a label-free surface plasmon resonance (SPR) based technology for studying biomolecular interactions in real time (GE Healthcare, Chalfont St. Giles, UK). 12A5-5, and ActRIIB/Fc were made in house, TGFbetaR11/Fc and BMPR-1A/Fc were from R & D Systems (Minneapolis, Minn.). […] Ten nanomolar of each of the ligands was flowed over immobilized high density antibody and receptor surfaces. Binding of Myostatin, GDF11, GDF3, Activin A, Activin AB, Activin AC, TGF-beta1, BMP4, BMP9, and BMP10 to their corresponding receptors was tested and used as control to normalize the signals of the ligands binding to 12A5-5 and the other receptors.

Activin A = target: T11, Activin A (UniProt P08476 311-426); assay: as above
T11 sequence (looked up): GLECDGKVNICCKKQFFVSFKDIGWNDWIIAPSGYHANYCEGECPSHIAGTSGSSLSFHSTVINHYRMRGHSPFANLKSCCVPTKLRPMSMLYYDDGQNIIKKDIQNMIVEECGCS
Experimental: as §2

Activin AB = target: T12, Activin AB (UniProt P08476 311-426; P09529 293-407); assay: as above
T12 construct: the two chains follow from the usual meaning of Activin AB
T12 sequence (looked up) 1: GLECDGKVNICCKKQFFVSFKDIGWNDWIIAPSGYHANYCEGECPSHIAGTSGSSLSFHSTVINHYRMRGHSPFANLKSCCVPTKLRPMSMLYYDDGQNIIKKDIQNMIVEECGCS
T12 sequence (looked up) 2: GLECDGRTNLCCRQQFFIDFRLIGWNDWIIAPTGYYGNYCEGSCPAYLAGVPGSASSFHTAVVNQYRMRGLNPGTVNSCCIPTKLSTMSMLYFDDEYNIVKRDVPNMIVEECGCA
Experimental: as §2

BMP9 = target: T13, BMP9 (UniProt Q9UK05 320-429); assay: as above
T13 sequence (looked up): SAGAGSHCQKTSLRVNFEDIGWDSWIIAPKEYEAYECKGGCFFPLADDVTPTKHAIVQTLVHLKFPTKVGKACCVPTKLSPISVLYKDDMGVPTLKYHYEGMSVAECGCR
Experimental: as §2

GDF3 = target: T14, GDF3 (UniProt Q9NR23 251-364); assay: as above
T14 sequence (looked up): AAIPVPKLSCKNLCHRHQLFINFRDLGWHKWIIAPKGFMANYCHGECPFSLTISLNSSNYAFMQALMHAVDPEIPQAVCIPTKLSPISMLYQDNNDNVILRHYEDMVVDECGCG
Experimental: as §2

TGF-beta1 = TGF-beta1 (UniProt P01137 279-390); assay: as above
Chain of TGF-beta1 (P01137 279-390 limits assumed): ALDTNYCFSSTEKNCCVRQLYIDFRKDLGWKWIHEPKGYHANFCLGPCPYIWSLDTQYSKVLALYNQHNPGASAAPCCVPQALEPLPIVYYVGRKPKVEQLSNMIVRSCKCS
Experimental: as §2

BMP4 = target: T15, BMP4 (UniProt P12644 293-408); assay: as above
T15 sequence (looked up): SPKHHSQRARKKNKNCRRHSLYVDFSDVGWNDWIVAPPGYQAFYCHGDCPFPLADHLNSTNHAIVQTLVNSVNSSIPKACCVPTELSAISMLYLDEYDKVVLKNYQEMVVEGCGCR
Experimental: as §2

B1: anti-myostatin neutralizing monoclonal antibody 12A5-5 (antibody, V domains shown)
VH: EVQLVESGGGLVQPGGSLRLSCAASGFTFSRYWMNWVRQAPGKGLEWVAQIRLKSDNYATHYAESVKGRFTISRDNAKNSLYLQMNSLRAEDTAVYYCTEGLDYWGQGTTVTVSS
VL: DIQMTQSPSSLSASVGDRVTITCKASQDINKYVAWYQQKPGKAPKLLIYYTSWLQPGVPSRFSGSGSGTDFTFTISSLQPEDIATYYCLQYDNLLYTFGQGTKLEIK
notes: in the KinExA assay it was detected with a goat anti-human-Fc antibody, so it carries a human Fc; also called Mab 12A5-5; MAb 12A5-5
binding result [1]: no binding (tested: peptide concentration not printed) | binding result [2]: no binding (tested: peptide concentration not printed) | binding result [3]: no binding (tested: peptide concentration not printed) | binding result [4]: no binding (tested: peptide concentration not printed) | binding result [5]: no binding (tested: peptide concentration not printed) | binding result [6]: no binding (tested: peptide concentration not printed) | binding result [7]: no binding (tested: peptide concentration not printed) | binding result [8]: no binding (tested: peptide concentration not printed) | Kd (GDF11): ~180 nM | binding result (Activin AC): no binding (tested: Ten nanomolar of each of the ligands) | binding result (Activin A): no binding (tested: Ten nanomolar of each of the ligands) | binding result (Activin AB): no binding (tested: Ten nanomolar of each of the ligands) | binding result (BMP9): no binding (tested: Ten nanomolar of each of the ligands) | binding result (GDF3): no binding (tested: Ten nanomolar of each of the ligands) | binding result (TGF-beta1): no binding (tested: Ten nanomolar of each of the ligands) | binding result (BMP4): no binding (tested: Ten nanomolar of each of the ligands)
